# Experiment: soluble on expression in E. coli; label from the status in PepcDB or PDB records
row,Sequence,soluble on expression in E. coli
1,MTTILTYPFKNLPTASKWALRFSIRPLSCSSQLRAAPAVQTKTKKTLAKPNIRNVVVVDGVRTPFLLSGTSYKDLMPHDLARAALTGLLHRTSVPKEVVDYIIFGTVIQEVKTSNVAREAALGAGFSDKTPAHTVTMACISANQAMTTGVGLIASGQCDVIVAGGVELMSDVPIRHSRKMRKLMLDLNKAKSMGQRLSLISKFRFNFLAPELPAVSEFSTSETMGHSADRLAAAFAVSRLEQDEYALRSHSLAKKAQDEGLLSDVVPFKVPGKDTVTKDNGIRPSSLEQMAKLKPAFIKPYGTVTAANSSFLTDGASAMLIMAEEKALAMGYKPKAYLRDFMYVSQDPKDQLLLGPTYATPKVLEKAGLTMNDIDAFEFHEAFSGQILANFKAMDSDWFAENYMGRKTKVGLPPLEKFNNWGGSLSLGHPFGATGCRLVMAAANRLRKEGGQYGLVAACAAGGQGHAMIVEAYPK,not soluble
2,MQDIWRLPATELADLVRSRRVSAREVAEAALHRLDAVNPAINAVVDHKADDALTQADAVDAAFAKGETPGVLAGVPVTVKVNVDQQGFATTNGVTLQRDWIAKTNNPVVDNLRKAGAVIIGRTNTPAFSYRWFTSNKLHGETLNPRDPSITPGGSSGGAAAAVAAGIGAIAHGTDIAGSVRYPAYACGVHGLRPTIGRVAAFNASSPERPICPQISAVSGPLARTIADVRLGLQALAQPDARDPWWVPAPLDGPPRDKRAALCIAPDDLAVVRAVRDALKDAARRLEAAGWVVDEIASTPPLREAAELQAQFWLGDGYQAMLDAAEREGDEGALACLHGNRDKAIGDLASYSKLLTRRATLTRDWQTFFETYAVLLTPVCGELPFPQRLDLKDEESFKRVWAAQMPQVGLPFMGLPALTVSTGMVGRVPVGVQVVSGRYREDLCLLAGEAIEA,not soluble
3,EQEMVQVFIPAQAVGAIIGKKGQHIKQLSRFASASIKIAPPETPDSKVRMVIITGPPEAQFKAQGRIYGKLKEENFFGPKEEVKLETHIRVPASAAGRVIGKGGKTVNELQNLTAAEVVVPRDQTPDENDQVIVKIIGHFYASQMAQRKIRDILAQVKQQHQK,soluble
4,MSLEHWNKTFCLEVKGDYACFTRPEMKVERVSYDVITPSAARGIFEAIFWKPAIRWRIRKIEVLNPIKWISVRRNEVGQTASERSDGIFIETARQQRAGLFLRDVAYRLHAELEFVPPSERPDAKRPVPESLQDGRETSELRKDENPGKYYAIFERRARKGQCFNQPYLGCREFSCEFRLVDDLANEPPPISETRNLGFMLYDLDFQKNLKEPPPAFFPACLEKGVIKVPDWESEEVRKEGHHHHHH,soluble
5,MLFHLPKLPAELRVSHLNARVNEQRKKIAQTTASKLEFLQLTQQLVKEAKIRKKNNQKIFVLDFKGDIQASAVDQLREEITLILATAKSGKDRVVLRLESPGGMVHGYGLAAAQLVRLRDAGFHLTIVVDKVAASGGYMMACIANEIVSAPFAILGSIGVVAQVPNFNRLLKEHNVDFELYTAGEYKRTVTMFGENTPEGKAKFEEELKQTHALFKHFVEKYRPQLNVEKVATGEHWYGQDALDLNLVDKLQTSDEYLLSLLPQHDVYVITTRKKPTLGERLGLQAAQLADSFIPAVMNKVVESLVNANSHLVQMRDPKILEHHHHHH,not soluble
6,VQLLESGPGVVKPSETLSLTCTVSGASVNNYYWTWVRQPPGKGLEWIGNVYDSGDTNYNPSLSSRLSLSMDTSKNQFSLRLSSVTAADTATYYCARYHRHFIRGPLSFDYWGRGTLVTVSSASTKGPSVFPLAPSSKSTSGGTSALGCLVKDYFPEPVTVSWNSGALTSGVHTFPAVLQSSGLYSLSSVVTVPSSSLGTQTYICNVNHKPSNTKVDKKVEPKSCDKTS,soluble
7,LEANEGSKTLQRNRKMAMGRKKFNMDPKKGIQFLVENELLQNTPEEIARFLYKGEGLNKTAIGDYLGEREELNLAVLHAFVDLHEFTDLNLVQALRQFLWSFRLPGEAQKIDRMMEAFAQRYCLCNPGVFQSTDTCYVLSYSVIMLNTDLHNPNVRDKMGLERFVAMNRGINEGGDLPEELLRNLYDSIRNEPFKIPEDDGND,soluble
8,MKLKSFGVFGNPIKHSKSPLIHNACFLTFQKELRFLGHYHPILLPLESHIKSEFLHLGLSGANVTLPFKERAFQVCDKIKGIALECGAVNTLVLENDELVGYNTDALGFYLSLKQKNYQNALILGAGGSAKALACELKKQGLQVSVLNRSSRGLDFFQRLGCDCFMEPPKSAFDLIINATSASLHNELPLNKEVLKGYFKEGKLAYDLAYGFLTPFLSLAKELKTPFQDGKDMLIYQAALSFEKFSASQIPYSKAFEVMRSVFLEHHHHHH,soluble
9,MKCIETPKSAEEWRKVERTFAKKHILRCLGSLDGKHIRIKAPPHSGSLFFNYKHFFSFVLLVVVDADGRVIWVDVGSPGSNNDASIFSDSKLKTILDEEANLPPPTFWSRDFVVKPFVIADGIFKITPRMMTLYGGNGLNISQKVLNKKLSRARVKAEHAFGRLSAKFRILRREMECPYEKSVDIILALCHLHNYLIGKAEDVVNVPIETNMIPYKDGKEQRDYLCRYLNN,not soluble
10,MSLAQKRYKHILWDLDGTIIDSKIGVSESIRYCLKYFNIEVTCLDEFKPMIGPPLQDSLREIYNFSPQQVEIACKLYDEYYMKKGIHEYKVFQNIEKVLSQLQNDNKELYVATTKPEYAAKQLLADCKLDTYFKFIGGDNEEFTRSNKADVIQYVLSANNISATDNVVMIGDRKYDMLAAKKIGIDTIGVLYGYGDRNELLTNGAQYIIEEPYELLNLLKGEGHHHHHH,soluble
11,MVLIDTEYVRAVVHNVGHRARCGVASKVRALKLAHSQARLRSYSQACERASYIDGRCEYYPSLDVASSSRNSEMLNSGFFDGYSWNTPNIQSQSSSDVTAKTELRRLMTETSEDPIHKEDSETLRRLIMWQEFRDAGVDVNTTQPGYGYGIEAKVEPFPQKLQNYESIHLETRRSSCPSFGTQLYNEPIYEGDEDPLGLGITPPVVTKTSGSLSNNGLDGINLNWKSIPAPVHQMQQHNANGDFVAAWPQNTIEKPTVGPLDKLQKQFEDIKLISISSGENTPTTRSKADEWLDDVLRVSMSMSPTSPSSDPPSTSSYSVLPKSGPPPAHAPPPLPVRQAVSNGSPSIYQQQLQQANSTRNSPAGINWNSSPNPMKISQPPAKPVDPFDVQWSRLAVNNTH,not soluble
12,SLAGVSYAAPWWVSLLHRLPHFDLRWEATSSQFRPEDADYQQAASAYGNGETSDGIHRATYSLRHANRTVAGVQDRVWDTAAALNRTAEPNLQSLERQLAGRQEPLRAVQRLQTGAARSSKGSAACSIPHTWQQKRGPDDDGEEETAPGPR,soluble
13,MGSSHHHHHHSSGRENLYFQGMKLATLKDSTRDGKLVVVSKDLTRCSEVGHIARTLQAALDDWAHAGPRLERVAEGIETGAQPTMRFHEHDAASPLPRAFQWADGSAYVNHVELVRKARNAEMPASFWTDPLIYQGGSDSFLGPRDPILMADDAWGIDMEGEAAVIVDDVPMGATLDEAKAAIRLVMLVNDVSLRGLIPGELAKGFGFYQSKPSSAFSPVAVTPEELGEAWDGGKLHLPLHVDLNGEPFGRANAGIDMTFDFPQLIVHAARTRPLSAGTIIGSGTVSNKLEGGPGRPVSEGGAGYSCIAELRMIETIEGGAPKTQFLKFGDVVRIEMKDRTGHSIFGAIEQKVGKYERG,soluble
14,MGHHHHHHGGHMSLQRGCDGCKQNQSREPATIDGFMPKAQESIMGQQKQRNRRWVLASRPHGAPVPENFRLEEDDVATPGEGQVLLRTVYLSLDPYMRGRMSDEPSYSPPVDIGGVMVGGTVSRVVESNHPDYQSGDWVLGYSGWQDYDISSGDDLVKLGDHPQNPSWSLGVLGMPGFTAYMGLLDIGQPKEGETLVVAAATGPVGATVGQIGKLKGCRVVGVAGGAEKCRHATEVLGFDVCLDHHADDFAEQLAKACPKGIDIYYENVGGKVFDAVLPLLNTSARIPVCGLVSSYNATELPPGPDRLPLLMATVLKKRIRLQGFIIAQDYGHRIHEFQREMGQWVKEDKIHYREEITDGLENAPQTFIGLLKGKNFGKVVIRVAGDDEGGS,soluble
